We go through one molecule from patent US20140079722A1, “EXTRACELLULAR TARGETED DRUG CONJUGATES” (CENTROSE, LLC, priority 2011, published 2014).

Data set [1] can be described thus: Single intraperitoneal dose tolerability. Format: in vivo, male BALB/c mice. The conditions noted are these: drug loading of 2, 500 mg/kg intraperitoneal. On the procedure:
In a separate experiment, male BALB/c mice (BALB/cAnNHsd, Harlan Laboratories) were administered a single and immediate dose of 500 mg/kg of M53-PEG24-CEN09-106 with a drug loading of 2 drugs per antibody by intraperitoneal injection. Animal weights were recorded over a 22 day period and visual observations were made over a period of 146 days and compared to mice receiving a vehicle control. […] Mice regained normal control body weight by day 15.

The next data set relates to A549 xenograft. Nature of the data set: A549 xenograft model (cell implant). The class given is in vivo, Hsd:Athymic Nude-Foxn1nu mice. How it is done: Briefly, to establish a non-small-cell lung cancer disease model, 6×10^6 A549 cells in 200 μL, RPMI1640+50% Matrigel HC (BD Biosciences, San Jose, Calif.) were implanted into the left flank of Hsd:Athymic Nude-Foxn1^nu mice (Harlan, Indianapolis, Ind.). Therapy with antibody-drug conjugates was then initiated when the tumor volume in groups of 5 animals averaged ˜300 mm^3. Treatment using vehicle control, 0.1 and 1 mg/kg M53-PEG24-CEN09-106, and 10 mg/kg control M53-PEG24-CEN09-106 (a control conjugate with a drug loading of 7 drugs per antibody where the antibody's target is not on the cell surface but drug and linker and antibody isotype are the same as M53-PEG24-CEN09-106) were all administered i.v. using the schedule of one injection every 7 days with 3 total injected doses (q7d×3). 15 mg/kg paclitaxel dosed at q2d×5 served as a positive control treatment group. Using this schedule, tumor volumes were measured for each group using calibrated vernier calipers and plotted against first day of tumor implant for 54 days post-implant and 40 days post-initial dose, to produce the graph shown in FIG. 3.

The nature of data set [2]: Pharmacokinetics with varying drug loading (antigen binding ELISA). The conditions noted are these: SCID beige mice. Format: in vivo. On the procedure: Serum was isolated from blood samples taken by retro-orbital blood collection at 1 hour, and 1, 2, 3, 6, and 15 days post-injection. Blood was collected into heparin coated tubes followed by centrifugation (5,000×g, 5 minutes) to isolate plasma.
Antigen capture plates that were prepared by coating wells of 96 well clear bottom ELISA plates with CENP018 (SEQ ID NO: 17) conjugated to BSA at 400 ng BSA-peptide conjugate per well in 100 uL of 200 mM carbonate buffer, pH 9.6 overnight at 4° C. Antigen coated ELISA plates were washed (×3) with PBS pH 7, blocked 30 min with PBS pH 7 containing 1% NFDM (PBS+NFDM), and then washed (×3) with PBS, pH 7. […] Goat anti-mouse IgG alkaline phosphatase (cat. number: A1418, Sigma-Aldrich, St. Louis, Mo.) was diluted 1:15,000 in PBS+NFDM and added (100 uL) to each well, incubated 30 min at RT, and the wells washed (×3) with PBS, pH 7. PNPP at 1 mg/mL in 1M DEA with 50 mM MgCl2, pH 9.8 was added (100 uL per well), and the absorbance at 405 nm was determined using a Wallac Victor^2 Model 1420-041 assay plate reader (Perkin Elmer, Gaithersburg, Md.) every 5 minutes for a total of 6 reads. Absorbance values from known antibody concentration standards were used to determine the concentration of antibody in the serum samples.
(In general: An ELISA detects its analyte on a solid surface through an enzyme-linked reagent.)

The next data set deals with H460 xenograft. Nature of the data set: H460 xenograft model. The class given is in vivo, Hsd:Athymic Nude-Foxn1nu mice. How it is done: Briefly, to establish a large-cell lung cancer disease model, 1×10^6 H-460 cells in 100 μL RPMI1640+30% Matrigel HC (BD Biosciences, San Jose, Calif.) were implanted into the left flank of Hsd:Athymic Nude-Foxn1^nu mice (Harlan, Indianapolis, Ind.). Therapy was initiated when the tumor size in groups of 5 animals averaged ˜200 mm^3. Treatment using vehicle control, M53-PEG24-CEN09-106 at 0.1 and 1 mg/kg, and 10 mg/kg control M53-PEG24-CEN09-106 (as described above) consisted of multiple i.v. injections using the schedule of one injection every 7 days for 2 injections (q7d×2). Paclitaxel served as a positive control treatment group and was dosed i.v. at 15 mg/kg using the schedule of one injection every 2 days for 5 injections (q2d×5). Using this schedule, tumor volumes were measured for each group using calibrated vernier calipers and plotted against day of tumor implant for 24 days post-implant and 12 days post-initial dose, graphed and shown in FIG. 5.

The subject of the next data set is A549 xenografts. Nature of the data set: Second A549 xenograft study (tumor fragments). The class given is in vivo, female HRLN nu/nu mice. How it is done:
Briefly, to establish a non-small-cell lung cancer disease model, subcutaneous A549 xenografts were initiated in female HRLN nu/nu mice by implanting 8 mm^3 A549 tumor fragments subcutaneously into the left flank. Tumor growth was monitored, and mice bearing tumors of 60-180 mm^3 were selected for the study. Tumor-bearing mice (n=7 mice/group) with a group average tumor volume of approximately 110 mm^3 were treated i.p. with 5 mgs/kg M53-PEG24-CEN09-106 at q3d×4, 20 mg/kg scillarenin-4-amino-deoxy-L-xylopryanoside (an intermediate in the construction of M53-PEG24-CEN09-106 and known cytotoxin) at q2dx5, and 15 mg/kg paclitaxel at q1d×5. Tumor volumes were measured for each group using calibrated vernier calipers plotted against day of first dose for 100 days to produce the graph shown in FIG. 4.
Paclitaxel at its optimum dosing produced 80% growth inhibition of the tumor when compared to vehicle.

B1: M53-PEG24-CEN09-106: Class 1 EDC: antibody M53 conjugated to linker-ready agent PEG24-CEN09-106 (scillarenin, 4-amino-xyloside, PEG24) (conjugate)
heavy: EVQLVESGGGLVQPKGTLKLSCAASGFSFNTHAMNWVRQAPGKSLEWVARTMSKSNNYATYYADSVKDRFIIRADDSQSMLYLQMNNLKTEDTAMYYCVRDDPKRGMDYWGQGTSVTVSSAKTTPPSVYPLAPGSAAQTNSMVTLGCLVKGYFPEPVTVTWNSGSLSSGVHTFPAVLQSDLYTLSSSVTVPSSTWPSETVTCNVAHPASSTKVDKKIE
light: GIVMSQSPSSLAVSVGEKVTMSCKPSQSLLYSRNQKIYLAWYQQKPGQSPKLLIYWASTRESGVPDRFTGSGSGTDFTLIISSVRAEDLAVYYCQQYYNYPLTFGAGTKLELKRADAAPTVSIFPPSSEQLTSGGASVVCFLNNFYPKDINVKWKIDGSERQNGVLNSWTDQDSKDSTYSMSSTLTLTKDEYERHNSYTCEATHKTSTSPIVKSFNR
With B1, in data set [1] (146 days), the visual observations result is on record as “no overt signs of toxicity”. In addition, the “average loss in body weight” value in data set [1] (first 6 days post injection) is listed as 30%. For the same molecule, the “growth inhibition of the tumor compared to vehicle” value in the data set on A549 xenograft (drug loading of 8, 0.1 mg/kg i.v. q7dx3, A549 xenograft) came to 35%; in the data set on A549 xenograft (drug loading of 8, 1 mg/kg i.v. q7dx3, A549 xenograft), 65%; in the data set on H460 xenograft (drug loading of 8, 0.1 mg/kg i.v. q7dx2, H460 xenograft), 38%; in the data set on H460 xenograft (drug loading of 8, 1 mg/kg i.v. q7dx2, H460 xenograft) it was 73%; with A549 xenografts (100 days post-initial dose, EDC (loading 3) 5 mg/kg i.p. q3dx4, scillarenin aminoxyloside 20 mg/kg q2dx5, paclitaxel 15 mg/kg q1dx5) it was 72%. For the same molecule, the “serum half-life of detectable antibody” value in data set [2] (drug loading of 2, 1 mg/kg tail vein) was “approximately 7 days”; in data set [2] (drug loading of 5, 1 mg/kg tail vein) it was about 96 h; in data set [2] (drug loading of 9, 1 mg/kg tail vein) it was about 48 h. Besides, the weight loss entry in the data set on H460 xenograft (EDC 0.1 mg/kg q7dx2, paclitaxel 15 mg/kg q2dx5, H460 xenograft) was “no weight loss”; with A549 xenografts (same dosing as efficacy arms, second A549 xenograft study) it was “no weight loss”.
